Measured values published in article PMC4695338.

What was measured:
Test in all cases: EMSA
Conditions in all cases: EMSA: fluorescein-12 ssRNA incubated with MBP-tagged proteins, agarose gel; buffer, salt, pH and temperature not in the material
[1] = test system: Pdd1p WT_HNG2 (hinge region 2) (Tetrahymena (species not given))
[2] = test system: Pdd1p WT_FL (Tetrahymena (species not given))
[3] = test system: Pdd1p WT_HNG1 (hinge region 1) (Tetrahymena (species not given))
[4] = test system: Pdd1p MIM22+Ins6K_FL (Tetrahymena (species not given))
[5] = test system: Pdd1p MIM14_FL (Tetrahymena (species not given))

EGFP ssRNA
Kd [1]: > 630 nM | Kd [2]: 65 nM | Kd [3]: 130 nM | Kd [4]: 347 nM | Kd [5]: 340 nM
